These results are taken from US20210340246A1 (GlaxoSmithKline, published 2021).

The target in this test is T1, human IL-5 (human, UniProt P05113 20-134).
T1 construct: The IL-5 reagent of the SPR assay is not described further; also called interleukin-5; soluble IL-5
The test is described as follows: standard surface plasmon resonance assays. (In SPR one partner is held on a chip, and binding of the other changes the refractive index at the surface.)

B1: mepolizumab (monoclonal anti-IL-5 antibody; unstressed composition / control samples) (antibody, human IgG1, kappa)
heavy: not shown
light: not shown
modifications: N-terminal Gln cyclised to pyroglutamate (typically >95.0%); C-terminal K449 clipped (typically >98.0%); N299 N-glycosylated
notes: Batches MDS1 T04L003S and MDS2 T0413010; also called Oxidation Control; Light Exposure Control
B1: the Kd is below 0.0229 nM.

By Kd is commonly meant the equilibrium constant for the complex coming apart.
